According to PMC9668737, “Herpes simplex virus 1 protein pUL21 alters ceramide metabolism by activating the interorganelle transport protein CERT” (The Journal of Biological Chemistry, 2022):
Numbering of substitutions follows the chain as printed.

Legend:
[1] = molecular target: T1, StrepII-CERTL^P (hyperphosphorylated StrepII-tagged CERTL) (human, UniProt Q9Y5P4-1 1-624, hyperphosphorylated (sites not given)); assay: ITC; 25 °C; 20 mM Tris pH 8.5, 500 mM NaCl, 0.5 mM TCEP; CERTL forms in the syringe titrated into pUL21 forms in the cell; one-site binding model; details: both partners purified
T1 construct: human CERTL, UniProt Q9Y5P4-1, synthetic gene; Trimer by SEC-MALS (observed 184.3 kDa, expected 215.7 kDa); not shown: StrepII, N-terminal, kept
T1 sequence (looked up): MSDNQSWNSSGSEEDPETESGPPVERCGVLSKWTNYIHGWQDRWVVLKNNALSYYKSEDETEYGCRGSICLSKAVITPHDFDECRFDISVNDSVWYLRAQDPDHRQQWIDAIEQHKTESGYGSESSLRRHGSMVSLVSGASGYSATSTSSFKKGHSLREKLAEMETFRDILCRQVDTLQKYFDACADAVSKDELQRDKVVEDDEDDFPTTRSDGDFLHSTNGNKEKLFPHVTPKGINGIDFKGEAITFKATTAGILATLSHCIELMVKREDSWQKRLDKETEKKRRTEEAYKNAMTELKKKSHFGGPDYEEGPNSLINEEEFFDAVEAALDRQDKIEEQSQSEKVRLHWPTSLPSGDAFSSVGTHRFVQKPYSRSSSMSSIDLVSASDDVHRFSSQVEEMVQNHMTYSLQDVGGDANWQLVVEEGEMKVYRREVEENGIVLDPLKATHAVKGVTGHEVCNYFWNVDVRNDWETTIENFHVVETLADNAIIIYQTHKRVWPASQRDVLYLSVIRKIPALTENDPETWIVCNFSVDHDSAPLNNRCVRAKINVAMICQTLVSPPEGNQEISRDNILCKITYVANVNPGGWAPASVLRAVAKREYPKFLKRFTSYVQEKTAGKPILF

[2] = molecular target: T2, StrepII-CERTL^S132A (human, UniProt Q9Y5P4-1 1-624, S132A, hypophosphorylated); assay: as above; details: both partners purified
T2 construct: human CERTL, UniProt Q9Y5P4-1, synthetic gene, S132A; Trimer by SEC-MALS (observed 199.2 kDa); also called constitutively hypophosphorylated form of CERTL; source: Freestyle 293F, stably transfected, doxycycline-induced, purified (StrepTrap HP, Superose 6 SEC); not shown: StrepII, N-terminal, kept
T2 sequence (looked up): T1 sequence (looked up) with S132A

[3] = molecular target: T3, StrepII-CERT^P (UniProt Q9Y5P4-2 1-598, hyperphosphorylated (sites not given)); assay: cell-based or functional assay
T3 sequence (looked up): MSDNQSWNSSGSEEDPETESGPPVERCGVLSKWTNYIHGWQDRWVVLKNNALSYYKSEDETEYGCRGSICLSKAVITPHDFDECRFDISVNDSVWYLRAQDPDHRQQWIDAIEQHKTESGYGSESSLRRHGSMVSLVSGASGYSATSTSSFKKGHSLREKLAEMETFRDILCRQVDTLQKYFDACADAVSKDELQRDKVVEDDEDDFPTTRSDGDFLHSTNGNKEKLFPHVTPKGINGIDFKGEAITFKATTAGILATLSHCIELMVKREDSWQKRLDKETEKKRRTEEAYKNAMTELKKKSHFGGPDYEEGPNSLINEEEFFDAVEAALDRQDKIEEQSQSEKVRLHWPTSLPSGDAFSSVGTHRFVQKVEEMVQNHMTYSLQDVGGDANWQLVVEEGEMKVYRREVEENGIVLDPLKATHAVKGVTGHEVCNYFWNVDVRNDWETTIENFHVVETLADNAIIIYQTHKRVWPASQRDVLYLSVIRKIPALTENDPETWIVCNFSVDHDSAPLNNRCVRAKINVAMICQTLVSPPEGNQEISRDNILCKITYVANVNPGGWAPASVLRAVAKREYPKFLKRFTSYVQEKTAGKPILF

B1: pUL21-H6 (natural protein)
chain: MELSYATTMHYRDVVFYVTTDRNRAYFVCGGCVYSVGRPCASQPGEIAKFGLVVRGTGPDDRVVANYVRSELRQRGLQDVRPIGEDEVFLDSVCLLNPNVSSELDVINTNDVEVLDECLAEYCTSLRTSPGVLISGLRVRAQDRIIELFEHPTIVNVSSHFVYTPSPYVFALAQAHLPRLPSSLEALVSGLFDGIPAPRQPLDAHNPRTDVVITGRRAPRPIAGSGAGSGGAGAKRATVSEFVQVKHIDRVGPAGVSPAPPPNNTDSSSLVPGAQDSAPPGPTLRELWWVFYAADRALEEPRADSGLTREEVRAVRGFREQAWKLFGSAGAPRAFIGAALGLSPLQKLAVYYYIIHRERRLSPFPALVRLVGRYTQRHGLYVPRPDDPVLADAINGLFRDALAAGTTAEQLLMFDLLPPKDVPVGSDVQADSTALLRFIESQRLAVPGGVISPEHVAYLGAFLSVLYAGRGRMSAATHTARLTGVTSLVLAVGDVDRLSAFDRGAAGAASRTRAAGYLDVLLTVRLARSQHGQSV
notes: HSV-1 pUL21, UniProt F8RG07; some paragraphs print H6-pUL21; also called H6-pUL21; WT pUL21; source: E. coli T7 Express lysY/Iq, purified (Ni-NTA, SEC); not shown: His6, C-terminal, kept
B1 was tested, and the Kd [1] was 773 nM, the Kd [2] was 642 nM and the “EC50 of pUL21-H6 (62.5 nM to 4 μM) for accelerating GST-PP1-mediated dephosphorylation of 0.5 μM CERT^P in vitro, all proteins purified, 25 nM GST-PP1γ, 30 min at 30 °C” value [3] was 0.491 μM.
